Data taken from patent US20260276625A1, “SCREENING METHOD FOR COMPOUND INDUCING AUTOPHAGY” (TOHOKU UNIVERSITY, priority 2023, published 2026).

How the values were obtained:
[1] = molecular target: LgBiT-p62 (p62 fused at its N-terminus to the Large BiT luciferase fragment; expressed from pLgBiT-p62) (not stated (cDNA from total RNA of HeLa cells)) (UniProt Q13501); test: NanoBiT split-luciferase complementation in HeLa cells co-transfected with pLgBiT-p62 and pSmBiT-DDX5; told of each of compounds 5 to 33 at 10 uM, 24 h
[2] = molecular target: LgBiT-p62 (p62 fused at its N-terminus to the Large BiT luciferase fragment; expressed from pLgBiT-p62) (not stated (cDNA from total RNA of HeLa cells)) (UniProt Q13501); test: NanoBiT split-luciferase complementation in HeLa cells co-transfected with pLgBiT-p62 and pSmBiT-DDX5; told of each of AUTAC2-2G, AUTAC4-2G, 8-nitro-cGMP and FBnG at 10 uM
[3] = molecular target: LgBiT-p62 (p62 fused at its N-terminus to the Large BiT luciferase fragment; expressed from pLgBiT-p62) (not stated (cDNA from total RNA of HeLa cells)) (UniProt Q13501); test: NanoBiT split-luciferase complementation in HeLa cells co-transfected with pLgBiT-p62 and pSmBiT-DDX5, treated with 10 uM AUTAC2-2G, AUTAC4-2G, 8-nitro-cGMP or FBnG; read 10 min after start of measurement (FIG. 1)
[4] = molecular target: LgBiT-p62 (p62 fused at its N-terminus to the Large BiT luciferase fragment; expressed from pLgBiT-p62) (not stated (cDNA from total RNA of HeLa cells)) (UniProt Q13501); test: NanoBiT split-luciferase complementation in HeLa cells co-transfected with pLgBiT-p62 and pSmBiT-DDX5, treated with 10 uM of compounds 5 to 33 or AUTAC2-2G; read 10 min after start of measurement (FIG. 2)

emission intensity, fold over cells treated with DMSO (times (vs DMSO-treated cells)) [1]: > 1000
emission intensity, fold over cells treated with DMSO (times (vs DMSO-treated cells)) [2]: > 1000
emission intensity (NanoBiT luminescence) [3]: 1e+07
emission intensity (NanoBiT luminescence) [4]: > 1e+07
Substance: SmBiT-DDX5 (DDX5, DEAD box protein 5, fused at its N-terminus to the Small BiT luciferase fragment; expressed from pSmBiT-DDX5) (from UniProt P17844 1-614)
